In this experiment the target is CTBMPR (not stated | Human immunodeficiency virus 1 (HIV-1)) (UniProt P01556). The experiment can be described thus: SEC.

A word on the stoichiometry N: it is a count of units in the complex or per binding partner. In turn, CTBMPR (from UniProt P01556 22-124) showed a stoichiometry N of 5.
